From the nanobody polyreactivity screen of Harvey et al. (2022)

Assay: yeast display, Sf9 membrane polyspecificity reagent, FACS + sequencing; frameworks hold sequencing errors
How it was run: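 A synthetic nanobody library was expressed on Saccharomyces cerevisiae BJ5465 by galactose induction for 36–48 hours. The library was stained for 1 hour at 4 °C with 10% biotinylated, detergent-solubilized Sf9 membrane reagent and enriched with streptavidin microbeads before FACS. Low and high (top ~1%) gates were set on anti-HA fluorescence for expression and streptavidin fluorescence for reagent binding, and each polyreactivity label reflects the gate of origin.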

Row | Sequence | polyreactivity (PSR sort gate)
1 | QVQLVESGGGLVQAGGSLRLSCAASGRIFLVYVMGWYRQAPAKERELVAANSWSGGSTYYADSVKGRFTISRDNAKNTVYLQMNSLKPEDTAVYYFAAYYRGRNFDYWGQATQVTVSS | high polyreactivity
2 | QVQLVESGGGLVQAGGSLRLSCAASGFTFGWYAMGWYRPAPGKERELVAAISSTGGRTYYADSVKGRFTISRDNAKNTVYLQMNSLKPEDTAVYYCAAAYSYGTEYGYWGQGTQVTVSS | high polyreactivity
3 | QVQLVESGGGLVQAGGSLRLSCAASGRTFYANAMGWYRQAPGKERELVATITRGGSTNYADSVKGRFTISRDNAKNTVYLQMNSLKPEDTAVYYCAARSYTSSHRHYYWGQGTQVTVSS | low polyreactivity
4 | QVQLVESGGGLVQAGGSLRLSCAASGRTFGVYAMGWYRQAPGKERELVAGIRWRGGSTYYADSVKGRFTISRDNAKNTVYLQMNSLKPEDTAVYYCAADVYLVKYDYWGQGTQVTVSS | low polyreactivity
5 | QVQLVESGGGLVQAGGSLRLSCAASGFIFQSYAMGWYRQAPGKERELVAAISASGGRTYYADSVKGRFTISRDNAKNTVYLQMNSLKPEDNAVYYCNARPAGRGYNYWGQGTQVTVSS | high polyreactivity
6 | QVQLVESGGGLVQAGGSLRLSCAASGSTFYSYVMGWYRQAPGKERELVAVITSGGSTTYADSVKGRFTISRDNAKNTVYLQMNSLKPEDTAVYYCAKRNYLSYRYDYWGQGTQVTVSS | low polyreactivity
7 | QVQLVESGGGLVQAGGSLRLSCAASGRIGRYAMGWYRQAPGKESELVAVITSGDSTYYADSVKGRFTITRDNAKNTVYFQMNSLKPEDTAVYYCAADSYRRWGILFTGNEYDSWGQGTQVTVSS | low polyreactivity
8 | QGQRVESGGGLVQAGGSLRLSCAASGFIFAHNAMGWYRPAPGTETEFVAAISANTGNTYYADSVKGRFTISRDNAKNTVYLQMNSLKPEDTAVYYCRSFYYWGQGTQVTVSS | high polyreactivity
9 | QVQLVESGGGLVQAGGSLRLSCAASGYIFRGYVMGWYRQAPGTERELVAGISRSGSSTYYADSVKGRFTISRDNAKNNVYLQMNSLKPEDTAVYYCAAVRSGIEYGYWGQGTQVTVSS | high polyreactivity
10 | QVQLVESGAGLVQAGGSLRLSCAPSGITFVGNAMGWSRPAPGKERELVAGIRGNGGSTYYADSVKGRFTISRDNAKNTVYFQMNSLKPEDTAVYYSAAAAYYADFDYWGLGTQVTVSS | low polyreactivity
11 | QVQIVESGGGLFQAGGSLRISCAASGSTIRANPMGWYRQAPGKERELVAAITKNGGSTYYADSVKGRYTISRDNAKYTVYLPMNTLIPEDNGVYYCAARRSSRRPPYYYWGQGTQVTVSS | high polyreactivity
12 | QVQLLESGGGLVQAGGSLRLSCAASGSIFGINAMGWYRQAPGKERELVAAISGSTSRTYYADSVKGRFTISRDNAKNTVYLQMNSLKPEDTAVYYCAVVGLRSVTRRSYYWGQGNQVTVSS | high polyreactivity
13 | QDQLVESGGGLVQAGGSLRLSCAASGFIIIGNAMGWYRQAPGKERELVAAISRRGGSTYYADSVKGRFTISRDHAKNTVYLQMNSLKPEDTALYYCNALTRRQKGGEGGGYWGQGTQVTVSS | high polyreactivity
14 | QVQLVESGGGLVQAGGSLRLSCAASGITFYVKDMGWYRQAPGKEREFVAAISYRGGSTYYADSVKGRFTISRDNAKNTVYLQMNSLKPEDTAVYYCAADYNYWSPHRYDYWGQGTQVTVSW | low polyreactivity
15 | QVQLVESGGGLVQAGGSLRLSCAASGRIFHVNAMGWYRQAPGKERELVATITTSGGTTYYADSVKGRFTISRDKAKNTVYLQMNSLKPEDTAVYYCAAKFPRQYSSRYNYWGQGTQVTVSS | low polyreactivity
16 | QVQLVESGGGLVQAGGSLRLSCAASGIIFRWYAMGWYRQAPGKERELVAAISRSGSSTYYADSVKGRFTISRDNAKNTVYLQMNSLKPEDTAVYYCNAEYQAPTEKGRYYYPWPYEYWGQGTQVTVSS | high polyreactivity
17 | QVQLVESGGGLVQAGGSLRLSCAASGGTFAGNAMGWYRQAPGKERELVAAISKSGAITYYADSVKGRFTISRDNAKNTVYLQMNSLKPEDTAVYYCAARYLSGTSRYYYWGQGTQVTVSS | high polyreactivity
18 | QVQLVESGGGLVQAGGSLRLSCAASGSIFTVYAIGWYRQAPGKEREFVADIDSGGTYYADSVKGRFTISRDNAKNTVYLQMNSLKPEDSAVYYCAALAALDYGQLYLADDDYWGQGTQVTVSS | low polyreactivity
19 | QVQLVESGGGLVQAGGSLRLSCAASGITFKPYGMGWYRPAPGKERELVADITSGGITYYADSVKGRFTISRDNAKNTVYLQMNSLKPEDTAVYYCATGDLFVYYWGYVVRLYDYWGQGTQVTVSS | low polyreactivity
20 | QVQLVESGGGLVQAGGSLRLSCAASGRILRYYAMGGYRQAPGKERELVAAITSGGSTTYYADSVKGRFTISRDNAKNTVYLQMNSLKPEDTAVYYCAADRARSSAKYDYWGQGTQVTVSS | low polyreactivity
21 | QVQLVESGGGLVQAGGSLRISCAASGLTLTSNDMGWYRQAPGKEREFVASITWSGGSTSYADSVKGRFTISRDNAKNTVYLQMNSLKPEDTAVYYCAARPRYFSKSWRGYYYWGQGTQVNVSS | high polyreactivity
22 | QVQLVESGGGLVQAGGSLRLSCAASGSNFPYYALGWYRQAPGNERELVATITYRGGSTNYADSVKGRFTISRDNAKNTVYLQMNSLKPEDTAVYYCADYGYVLASPYPYSFVKLGYWGQGTQVTVSS | low polyreactivity

Row | Sequence | polyreactivity (PSR sort gate)
23 | QVQLVESGGGLVQAGGSLRLSCAASGLIFGRNAMGWYRQAPGKERELVAAISYRGGSTYYADSVKGRFTISRDNAKNTVYLQMNSLKPEDTAVYYCNRVWYAWGTGYDYWGQGTQVTVSS | high polyreactivity
24 | QVQLLESGGGLVQAGGSLRLSCAASGNTFTYYAMGWYRQAPGKERELVAAISDDGNTNYADSVMGRFTISRDNAKKTVYSQMNSLKPEDTAVYYCNADSYPSLNKRGYDYWGQGTQVTVSS | low polyreactivity
25 | QVQLVESGGGLVQAGGSLRLSCAASGSIFLDYAMGWYRQAPGKERELVDGITISGGSTYYADSVKGRFTISRDNAKNTVYLQMNSLKPEYTAVYYCAKVAPRSSSSQEYYYWGQGTQVTVSS | low polyreactivity
26 | QVQLVESGGGLVQAGGSLRLSCAASGSIFRIYAMGWYRQAPGKERELVAAISWTGGSTYYADSVKGRFTISRDNAKNTFFLQMNSLKPEDTAVYYCAARPRYKFSAYEYWGQGTQVTVSS | high polyreactivity
27 | QVQLVESGGGLVQAGGSLRLSCAASGRIFYGNPMGWYRQAPGKERELVAAISSGGGSTYYADSVKGRFTISRDNAKNTVYLQMNSLKPEDTAVYYCAADPVHRFPGTGGYWGQGTQVTVSS | low polyreactivity
28 | QVQHVESGGGLVQAGGSLRLSCAASGSIIDIYAMGWYRQAPGKERELVASISGGAGSTNYADSVKGRFTISRDNAKNSVYLQMNSLKPEDTGVDDFAAVVYVPVYFQHKFDVEYEYWGQGTQVTVSS | low polyreactivity
29 | QVQLVESGGGLVQAGGSLRLSCAASGSTFYLNAKGWYRQAPGKERELVAASSSSGGSTYYADSVKGRFTISRDNAKNTVYLQMNSLKPEDTAVYYCACSCVPAVSVYGGDYWGQGTQVTVSS | low polyreactivity
30 | QVQLVESGGGLVQAGGSLRLSCAASGRIFIGYAMGWYRQAPGKERELVAAISWGGGSTFYADSVKGRFTISRDNAKNTVYLQMNSLKPEDTAVYYCNKVYRQRVVKGGYWGQGTQVTVSS | high polyreactivity
31 | QVQLEESGGGLVQAGGSLRLSCAASGSTFAGNAMGWYRQAPGKERELVAAISGSGGITYYADSVKGRFTISRDNAKNTVYLQMNSLKAEDTAVYYCNAYYWFSRYGYWGQGTQVNVSS | high polyreactivity
32 | QVQLVESGGGLVQAGGSLRLSCAASGLIFYGNAMGWYRQAPGKERELVADITGSSVRTYYADSVKGRFTISRDNAKNTDYLQMNSLKPEDTAVYYCAATYGYLYTGLSRYDYWGQGTQVTVSS | low polyreactivity
33 | QVQLVESGGGLVQAGGSLRLSCAASGRTITAYTMVWYRQAPVKEREMVASISSGVTYADSVKGRFTISRDNAKNTVYLQMNRLKPEDTAVYYCAARLWYVQGYVPYVHHRFDYWGQGTQVTVSS | low polyreactivity
34 | QVQLVESGGGLVQAGGSLRLSCAASGSTFYSYGMGWYRQAPGKERELVAAITEDGDTTYYADSVKGLYTISRDNAKNTVYLQMNSLKPEDTAVYYCAAETYYLDDYWGQATQVTVSS | high polyreactivity
35 | QVQLVESGGGLVQAGGSLRLSCAASGSTFPPYVMGWYRQAPGKERELVAAISRGGGSTYYADSVKGRFTISRDNAKNTVYLQMNSLKPEDTAVYYCAAKNVYHDDYWGQGTQVTVSS | high polyreactivity
36 | QVQLVESGGCLVQAGGSLRLSCAASGSIFYRNAMGWYRQAPGKERELVAAISSDGSTNYADSVKGRFTISRDNAKNTVYLQMNSLKPEDTAVYYCAAPWTQILDYWGQGTQVTVSS | low polyreactivity
37 | QVELVESGGGLVQAGGCLRLSCAASGGIFESYAMGWYRRAPGRERELVADSTSGGSTNYADSVKGRFTIAGDNAKNTLYLQMNSLKPEDTAVYYCAKEFYYSVGVNLGDSWGQGTQGTVSS | low polyreactivity
38 | QVHLVESGGGLVQAGGSLRLSCAASGRTFKGYAMGWYRQAPGKERELVASINWSDGNTYYADSVKGRFTISRDNAKNTVYLQMNSLKPEDTAVYYCNVRRGDRFVRHDYWGQGTQVTVSS | low polyreactivity
39 | QVQLVESGGGLVQAGGSLRLSCAASGRTFTGYAMGWYRQAPGKEREFVAAITQRGGSTYYADSVKGRFTISRDTAKNTVYLQMNSLKPEDTAVYYCAARRRYKMDYWGQGTQVTVSS | high polyreactivity
40 | QVQLVESGGGLVQAGGSLRLSCAASGSIFRRYAMGWYRQAPGKEREFVAAITRSGGGTYYADSVKGRFTISRDNAKNTVYLQMNSLKPEDSAVYYCAKDVFVQRSRYPEGDYWGQGTQVTVSS | high polyreactivity
41 | QVQLVESGGGLVQAGGSLRLSCAASGSIFGWYVMGWYRQAPGKERELVAAISSVGSTYYADSVKGRFTISRDNAKNTVYLQMNSLKPEDTAVYYCAKLRYPYLFWDDSEYWGQGTQVTVSS | low polyreactivity
42 | QVQLVESGGGLVQAGGSLRLSCAASGYIFVTNAMGWYRQAPGKERELVAAISYRGGSTSYADSVKGRFTISRDNAKNTVYLQMNSLKPEDTAVYYCNAVTFPLGYLRFYYWGQGTQVTVSS | low polyreactivity
43 | QVQLVESGGGLVQAGGSLRLSCAASGRIFAWYAMGWYRQAPGKERELVAAISDSGGSTYYADSVKGRFTISRDNAKNTVYLQMNSLKPEDTAVYYCAADQVVYSAYWSDHYDYWGQGTQVTVSS | low polyreactivity
